In series [1] the test system is NC(=O)C1=CN([C@@H]2O[C@H](COP(=O)(O)OP(=O)(O)OC[C@H]3O[C@@H](n4cnc5c(N)ncnc54)[C@H](O)[C@@H]3O)[C@@H](O)[C@H]2O)C=CC1. Put plainly: Kinetics of cofactor substrates, BNOX (change of absorbance at 340 nm). Format: biochemical, Borrelia burgdorferi. The note with it: other: BNOX, pH 7.0, 30° C., HEPES buffer, air-saturated solution, 40% ammonium sulfate cut for BNOXK6. On the procedure:
(§1) The kinetic analysis was performed on ammonium sulfate fractions from both the sfnox and bnox strains in 50 mM HEPES buffer pH 7.0 at 30° C. The initial enzyme fractions were diluted in 25 mM HEPES pH 7.0 at 30° C.+25% glycerol+5 mM DTT to approximately −0.05 A340 nm/min and retained on ice during analysis. Conversion of NAD(P)H was followed by change of absorbance at 340 nm in a Jasco V-530 spectrophotometer. 3 mL methylacrylate disposable cuvettes were used for all experiments and all runs were performed in triplicate at 30° C. Reactions with NADH were started by adding 3 μL of enzyme preparation, 9 μL for NADPH, to the cuvette and mixing by inversion with parafilm three times. Varying concentrations of NAD(P)H substrate were made my preparing 100 mL of a 300 μM solution in a volumetric flask. Dilutions of this solution were then made to provide the differing substrate concentrations for the kinetic profile.
(§2) Investigation of kinetic parameters with NADH and NADPH cofactors as substrates was performed with the supernatant of the 45% ammonium sulfate cut (40% for BNOXK6) in air-saturated solution at 30° C. and pH 7.0 in 0.1 M HEPES buffer. […] Chi values and error bars reveal high accuracy with <10% error in most cases.

Series [2] concerns L. brevis (R)-ADH, G37D mutant. The note with it: in comparison with the wildtype for NADP^+; cited from earlier work.
For series [3], the target named is Borrelia burgdorferi NADH oxidase BNOX (BNOXK6; SEQ ID NOs 8, 10 and 12) (Borreliella burgdorferi, UniProt O51670, E220G/N174S). Put plainly: Kinetics of cofactor substrates, BNOX (change of absorbance at 340 nm). The note with it: pH 7.0, 30° C., comparable degree of purity to SFNOX. Type of series: biochemical. On the procedure:
as §1, §2

Series [4] is described as follows: Nox activity assay (NADH oxidation at 340 nm). Format: biochemical. The note with it: overexpressed in E. coli. The protocol: Nox activity assay: Cell-free extracts of the recombinant sfnox and bnox E. coli strains were prepared using ultrasonication described above in 0.1 M TEA pH 7.5+5 mM DTT or β-mercaptoethanol. Nox activities were assayed at 30° C. in a total volume of 1 mL at 340 nm using the following conditions: in 0.1 M TEA pH 7.5 a final concentration of 0.2 mM NADH was dissolved and 10 μl enzyme solution was added. Enzyme reaction was followed for 1 min, activity was calculated using an extinction coefficient ε of NADH of […].

A short description of series [5]: Kinetics of cofactor substrates, NADPH. Type of series: biochemical. The note with it: pH 7.0, 30° C. The protocol:
as §1, §2

Series [6] in a line: Hydrogen peroxide assay (Amplex Red / resorufin fluorescence). The note with it: upon conversion of 300 μM NADH. Type of series: biochemical. On the procedure:
With its detection limit of 100 nM, the test based on 9-acetyl-resorufin (“Amplex Red”) is much more sensitive than the other assays mentioned. Horseradish peroxidase (HRP)-catalyzed oxidation of 9-acetyl resorufin (“Amplex Red”) to fluorescent resorufin was the assay. Amplex Red reacts with H2O2 according to a strict 1:1 stoichiometry. The resorufin assay (λmax: 587 nm (emission), ε=54,000 L(mol-cm)^−1) with its extremely low detection limit of 100 nM resorufin product is much more sensitive than other assays, such as ABTS or o-dianisidine..
For the sensitive assay of putative hydrogen peroxide formation during the reaction of NADH oxidase the horseradish peroxidase-catalyzed oxidation of 9-acetyl resorufin was employed. The Amplex Red hydrogen peroxide assay kit (A-22188) from molecular probes was utilized for these assays. Following the protocols outlined in the kit instructions, a standard curve of H2O2 was prepared in the reaction buffer (50 mM sodium phosphate buffer pH 7.4) from the peroxide stock. The prepared concentrations were 20, 10, 5, and 2.5 μM H2O2 and 0 as a control. A working solution of 100 μM Amplex Red reagent and 0.2 U/ml horseradish peroxidase (HRP) was prepared in the reaction buffer as per kit instructions. As NADH and other reducing reagents are known to interfere with the amplex red assay, the NADH oxidase enzymes were allowed to react with the substrate immediately prior to the Amplex Red analysis. Reaction buffer from the kit was utilized in running enzyme test with 300 μM NADH as well as the controls without NADH. The enzyme conversions were performed by adding 3 μl of enzyme prep to 3 ml of reaction buffer with 300 μM NADH, mixing, and following the conversion until completion by absorbance at 340 nm. 50 μl of the final reaction mixture and standard curve solutions were added to each well in a 96 well fluorescence plate (costar, black, pp). Five replicates were made per sample and standard curve point. […] Fluorescence readings were performed in a BMG FLUOstar Galaxy micro plate reader with 544ex/590em filter settings.

A short description of series [7]: Activity-pH profile. Format: biochemical. On the procedure:
With the supernatant of the 45% ammonium sulfate cut, an activity—pH profile was measured for SFNOX (FIG. 4). The pH optimum of activity was found at pH 5.2. Below pH 5, activity decreased markedly and reached zero at pH 4.5. Rates at pH 4.5 to 5.2 are reported as net rates, with the chemical decomposition rate at low pH subtracted. […] The sharp activity decline between pH 5.2 and 6.0 coincides with the enzyme's pI, calculated to be pH 5.4.
The pH profile was performed on ammonium sulfate fractions from the sfnoxK2. 100 mM buffer solutions at 30° C. and 200 μM NADH were used for activity analysis as monitored by absorbance at 340 nm. All samples were tested in triplicate in 3 mL methylacrylate disposable cuvettes. The following buffers were utilized within the buffering range of 1 pH unit from their pKa: acetate, N-methylpiperazine, MES (2-[N-morpholino]ethanesulfonic acid hydrate), and bis-tris-propane. Sodium hydroxide or hydrochloric acid were used in preparation of the respective buffers.

Changes are numbered by the printed parent chain. Numbers in names are those of the source. Entries after “also recorded” stand apart in the source; their conditions may differ.

For orientation: Km means the substrate concentration at which the rate is half of its maximum. In the case of “Borrelia burgdorferi NADH oxidase BNOX (BNOXK6; SEQ ID NOs 8, 10 and 12) (Borreliella burgdorferi B31; E220G/N174S)”, in series [1], the Km was found to be 22.0 µM.

`NC(=O)c1ccc[n+]([C@@H]2O[C@H](COP(=O)([O-])OP(=O)(O)OC[C@H]3O[C@@H](n4cnc5c(N)ncnc54)[C@H](O)[C@@H]3O)[C@@H](O)[C@H]2O)c1` [NAD^+]: the “KM-value for NAD^+” value in series [2] is recorded as “very high”.

In series [3], `NC(=O)C1=CN([C@@H]2O[C@H](COP(=O)(O)OP(=O)(O)OC[C@H]3O[C@@H](n4cnc5c(N)ncnc54)[C@H](O)[C@@H]3O)[C@@H](O)[C@H]2O)C=CC1` [NADH] registered a vmax of 2.03 U/mg.

B1: SFNOXK2: sequenced SFNOX clone with alanine to valine change at position 30 (A30V), SEQ ID 4 (protein)
chain: MKVIVVGCTHAGTFAVKQTIADHPDADVTVYEMNDNISFLSCGIALYLGKEIKNNDPRGLFYSSPEELSNLGANVQMRHQVTNVDPETKTIKVKDLITNEEKTEAYDKLIMTTGSKPTVPPIPGIDSSRVYLCKNYNDAKKLFEEAPKAKTITIIGSGYIGAELAEAYSNQNYNVNLIDGHERVLYKYFDKEFTDILAKDYEAHGVNLVLGSKVAAFEEVDDEIITKTLDGKEIKSDIAILCIGFRPNTELLKGKVAMLDNGAIITDEYMHSSNRDIFAAGDSAAVHYNPTNSNAYIPLATNAVRQGRLVGLNLTEDKVKDMGTQSSSGLKLYGRTYVSTGINTALAKANNLKVSEVIIADNYRPEFMLSTDEVLMSLVYDPKTRVILGGALSSMHDVSQSANVLSVCIQNKNTIDDLAMVDMLFQPQFDRPFNYLNILGQAAQAQADKAHK
With B1, the “activity of the overexpressed constructs” value in series [4] was “comparable activity”.

B2: SFNOX: NAD(P)H oxidase isolated from Lactobacillus sanfranciscensis, SEQ ID NO 2; oxidizes NADH and NADPH, reduces oxygen to water (protein)
chain: B1 chain with V30A
Regarding B2, the “acceptance of NADPH as a substrate” value in series [5] was “accept NADPH as a substrate with good reactivity”. Besides, the “activity with NADPH relative to activity towards NADH” value in series [5] (ratio of vmax) was “about 30%”. In addition, in series [6], the H2O2 yield is listed as 0.2% and the “resorufin above background (equal concentration of H2O2 formed)” value amounted to 0.6 µM. The “pH of the minimum of the bimodal activity-pH curve” value in series [7] (200 μM NADH, 30° C.) is reported as approximately 5.5. Moreover, the “pH optimum of activity” value in series [7] (200 μM NADH, 30° C., supernatant of 45% ammonium sulfate cut) turned out to be 5.2. Moreover, in series [7] (pH 4.5, net rate), the “activity at pH 4.5” value is on record as “zero”. Moreover, the “activity at pH 5.5” value in series [7] (pH 5.5) was “instantaneously lose activity”.

B3: SFNOXK6: sequenced SFNOX clone with A30V and lysine to arginine at position 102 (K102R), SEQ ID NO 6 (protein)
chain: B1 chain with K102R, E250G
On to B3, for which the “activity of the overexpressed constructs” value in series [4] is “comparable activity”.

B4: BNOX: NADH oxidase from Borrelia burgdorferi, SEQ ID NO 8; reacts with NADH only (protein)
chain: MMKIIIIGGTSAGTSAAAKANRLNKKLDITIYEKTNIVSFGTCGLPYFVGGFFDNPNTMISRTQEEFEKTGISVKTNHEVIKVDAKNNTIVIKNQKTGTIFNNTYDQLMIATGAKPIIPPINNINLENFHTLKNLEDGQKIKKLMDREEIKNIVIIGGGYIGIEMVEAAKNKRKNVRLIQLDKHILIDSFDEEIVTIMEEELTKKGVNLHTNEFVKSLIGEKKAEGVVTNKNTYQADAVILATGIKPDTEFLENQLKTTKNGAIIVNEYGETSIKNIFSAGDCATIYNIVSKKNEYIPLATTANKLGRIVGENLAGNHTAFKGTLGSASIKILSLEAARTGLTEKDAKKLQIKYKTIFVKDKNHTNYYPGQEDLYIKLIYEENTKIILGAQAIGKNGAVIRIHALSIAIYSKLTTKELGMMDFSYSPPFSRTWDILNIAGNAAK
B4: in series [5], the “acceptance of NADPH as a substrate” value was “does not accept NADPH as a substrate; also recorded: only accepts NADH”. Moreover, the “resorufin above background (equal concentration of H2O2 formed)” value in series [6] was “could not detect any resorufin above background”.

These data come from patent US7163815B2, “Methods and compositions for NAD(P)(H) oxidases” (Georgia Tech Research Corporation, priority 2002, dated 2007).
